Changes are numbered by the printed parent chain. Names may count otherwise. Where no end group is shown, it is not given here. [ ]: non-standard residue; d: D form. pS = N[C@@H](COP(=O)(O)O)C(=O)O
B1: GM130-NLS phospho-S25 (synthetic peptide with a phosphate moiety on Ser-25 of GM130, a.a. 13-40) (peptide)
chain: AKKKLREYQQRN[pS]PGVPTGAKKKKKIKN
B2: GM130-NLS WT peptide (peptide)
chain: AKKKLREYQQRNSPGVPTGAKKKKKIK
B3: GM130-S25D (phosphomimetic GM130 (1-85) mutant), non-tagged (domain or fragment)
chain: MSEETRQSKLAAAKKKLREYQQRNDPGVPTGAKKKKKIKNGSNPETTTSGGCHSPEDTPKDNAATLQPSDDTVLPGGVPSPGASL
B4: GM130-WT (wild type GM130 N-terminal region, a.a. 1-85), non-tagged (domain or fragment)
chain: B3 chain with D25S
B5: p115-CTD (p115, a.a. 780-930) (domain or fragment)
chain: SARDSEQVAELKQELATLKSQLNSQSVEITKLQTEKQELLQKTEAFAKSVEVQGETETIIATKTTDVEGRLSALLQETKELKNEIKALSEERTAIKEQLDSSNSTIAILQTEKDKLELEITDSKKEQDDLLVLLADQDQKILSLKNKLKDL

How the values were obtained:
[1] = molecular target: T1, Importin-α FL (full-length Importin-α), recombinant (human, UniProt P52292 1-529); test: ITC; phospho-S25
[2] = molecular target: Importin-β, recombinant, non-tagged (human, UniProt Q14974 1-876); test: ITC; phospho-S25
Sequence of Importin-β, recombinant, non-tagged (Q14974 whole entry): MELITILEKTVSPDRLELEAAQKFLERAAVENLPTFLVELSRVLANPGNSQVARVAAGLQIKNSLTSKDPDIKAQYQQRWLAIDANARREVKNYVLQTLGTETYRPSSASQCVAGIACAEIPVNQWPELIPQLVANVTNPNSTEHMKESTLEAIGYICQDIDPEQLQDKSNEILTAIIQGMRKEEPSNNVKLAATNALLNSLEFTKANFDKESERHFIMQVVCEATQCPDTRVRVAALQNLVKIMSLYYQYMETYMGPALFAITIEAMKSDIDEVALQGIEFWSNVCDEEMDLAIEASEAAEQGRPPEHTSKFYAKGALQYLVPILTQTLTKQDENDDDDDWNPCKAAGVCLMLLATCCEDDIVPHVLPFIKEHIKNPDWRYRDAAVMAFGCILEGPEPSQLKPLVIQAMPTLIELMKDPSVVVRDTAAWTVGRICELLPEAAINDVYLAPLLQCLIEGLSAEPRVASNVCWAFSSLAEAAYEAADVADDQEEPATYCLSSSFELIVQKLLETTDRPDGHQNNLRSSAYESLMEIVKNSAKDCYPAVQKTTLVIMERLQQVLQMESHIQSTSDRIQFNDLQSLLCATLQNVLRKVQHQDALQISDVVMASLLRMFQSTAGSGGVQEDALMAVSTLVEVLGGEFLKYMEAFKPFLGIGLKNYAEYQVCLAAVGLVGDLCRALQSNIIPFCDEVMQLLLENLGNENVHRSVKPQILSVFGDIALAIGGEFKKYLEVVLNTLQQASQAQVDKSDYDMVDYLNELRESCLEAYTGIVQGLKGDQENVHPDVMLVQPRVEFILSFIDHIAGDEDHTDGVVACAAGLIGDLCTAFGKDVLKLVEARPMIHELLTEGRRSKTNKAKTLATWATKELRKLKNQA

[3] = molecular target: T1, Importin-α FL (full-length Importin-α), …; test: ITC
[4] = molecular target: Importin-α(ΔIBB) (Importin-α lacking the IBB domain, a.a. 70-524) (mouse, UniProt P52293 70-524); test: ITC; 200 mM NaCl
[5] = molecular target: B3; test: ITC
[6] = molecular target: B4; test: ITC

Binder: B1
Kd [1]: 2100 nM
Kd [2]: 270 nM

Binder: B2
Kd [3]: 6900 nM

Binder: B3
Kd [4]: 227 nM

Binder: B4
Kd [4]: 322 nM

Binder: B5
Kd [5]: 985 nM
Kd [6]: 823 nM

From PMC6754406 (2019)
